In patent US20140213531A1 (POLYPHOR, published 2014):

Tests used:
Assay in all cases: cell-based or functional assay
[1] = biological target: Urokinase from human urine (human, UniProt P00749 21-431, limits assumed)
[2] = biological target: T1, CathepsinG, from human neutrophils (human, UniProt P08311 21-244)
T1 sequence (looked up): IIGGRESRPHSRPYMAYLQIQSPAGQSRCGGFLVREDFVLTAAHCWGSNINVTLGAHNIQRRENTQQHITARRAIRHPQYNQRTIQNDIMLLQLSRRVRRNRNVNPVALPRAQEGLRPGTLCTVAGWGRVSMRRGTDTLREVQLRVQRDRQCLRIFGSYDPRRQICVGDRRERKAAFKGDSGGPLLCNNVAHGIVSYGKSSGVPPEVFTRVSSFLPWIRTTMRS

[3] = biological target: Tryptase, from human lung (human, UniProt Q15661 31-275, limits assumed)
Chymase, from human skin = biological target: T2, Chymase, from human skin (human, UniProt P23946 22-247)
T2 sequence (looked up): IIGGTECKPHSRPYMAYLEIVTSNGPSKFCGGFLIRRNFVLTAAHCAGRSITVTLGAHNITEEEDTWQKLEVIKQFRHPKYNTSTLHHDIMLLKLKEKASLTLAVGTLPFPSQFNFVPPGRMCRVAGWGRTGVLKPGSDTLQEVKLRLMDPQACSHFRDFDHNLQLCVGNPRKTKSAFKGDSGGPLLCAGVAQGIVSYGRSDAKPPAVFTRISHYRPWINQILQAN

[4] = biological target: Coagulation Factor Xa, from human plasma (human, UniProt P00742 41-488, limits assumed)
[5] = biological target: T3, Elastase from human neutrophils (human, UniProt P08246 30-247, limits assumed)
T3 sequence (looked up): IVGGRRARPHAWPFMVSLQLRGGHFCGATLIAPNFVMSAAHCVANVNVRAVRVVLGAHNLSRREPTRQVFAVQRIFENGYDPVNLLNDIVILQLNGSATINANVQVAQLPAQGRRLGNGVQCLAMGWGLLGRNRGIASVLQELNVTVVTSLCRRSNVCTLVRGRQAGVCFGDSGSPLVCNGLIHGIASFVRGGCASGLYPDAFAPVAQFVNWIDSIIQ

[6] = biological target: Chymotrypsin, from human pancreas (human, UniProt P17538 19-263)
[7] = biological target: Thrombin, from Human Plasma, high activity (human, UniProt P00734 328-622)
[8] = biological target: Trypsin, Iodination grade, from human pancreas (human, UniProt P07477 24-247)

Coagulation Factor Xa, from human plasma, sequence (P00742 41-488 limits assumed): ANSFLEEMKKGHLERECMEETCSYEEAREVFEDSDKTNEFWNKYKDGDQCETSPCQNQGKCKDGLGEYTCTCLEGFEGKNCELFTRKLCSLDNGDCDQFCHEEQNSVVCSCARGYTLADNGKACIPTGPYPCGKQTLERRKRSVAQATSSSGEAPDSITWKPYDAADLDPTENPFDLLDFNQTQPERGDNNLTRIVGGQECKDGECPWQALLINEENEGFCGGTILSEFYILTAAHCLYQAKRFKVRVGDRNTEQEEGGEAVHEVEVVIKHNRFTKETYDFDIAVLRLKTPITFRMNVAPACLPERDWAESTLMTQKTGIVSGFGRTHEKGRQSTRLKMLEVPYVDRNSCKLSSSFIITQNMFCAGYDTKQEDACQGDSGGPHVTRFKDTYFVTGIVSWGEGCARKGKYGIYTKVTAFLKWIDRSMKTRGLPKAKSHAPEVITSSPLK
Chymotrypsin, from human pancreas, sequence (P17538 19-263): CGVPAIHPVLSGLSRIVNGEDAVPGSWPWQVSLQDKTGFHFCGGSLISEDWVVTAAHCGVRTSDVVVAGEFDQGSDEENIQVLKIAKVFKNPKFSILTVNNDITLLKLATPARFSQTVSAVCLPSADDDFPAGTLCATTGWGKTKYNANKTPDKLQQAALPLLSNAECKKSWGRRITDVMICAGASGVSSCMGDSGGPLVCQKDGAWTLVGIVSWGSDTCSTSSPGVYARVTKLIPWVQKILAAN
Tryptase, from human lung, sequence (Q15661 31-275 limits assumed): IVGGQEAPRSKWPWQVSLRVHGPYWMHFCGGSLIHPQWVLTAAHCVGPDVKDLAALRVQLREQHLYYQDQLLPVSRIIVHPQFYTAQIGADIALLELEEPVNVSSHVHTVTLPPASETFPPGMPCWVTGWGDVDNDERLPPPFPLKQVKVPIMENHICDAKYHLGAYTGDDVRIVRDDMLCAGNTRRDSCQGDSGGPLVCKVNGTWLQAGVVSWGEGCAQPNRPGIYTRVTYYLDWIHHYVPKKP

Binder	% inhibition at 100 µM [1] [%]	IC50 [2] [nmol]	% inhibition at 100 µM [3] [%]	% inhibition at 100 µM (Chymase, from human skin) [%]	% inhibition at 100 µM [4] [%]	IC50 [5] [nmol]	% inhibition at 100 µM [6] [%]	% inhibition at 100 µM [7] [%]	% inhibition at 100 µM [8] [%]
XCTKSDPPICY (HELM PEPTIDE1{[O=C([C@@H](N[*:1])C1CCCCC1)[*:2]].C.T.K.S.D.P.P.I.C.Y.[dP].P}$PEPTIDE1,PEPTIDE1,2:R3-10:R3|PEPTIDE1,PEPTIDE1,1:R1-13:R2$$$V2.0; SMILES CC[C@H](C)[C@@H]1NC(=O)[C@@H]2CCCN2C(=O)[C@@H]2CCCN2C(=O)[C@H](CC(=O)O)NC(=O)[C@H](CO)NC(=O)[C@H](CCCCN)NC(=O)[C@H]([C@@H](C)O)NC(=O)[C@@H]2CSSC[C@H](NC1=O)C(=O)N[C@@H](Cc1ccc(O)cc1)C(=O)N1CCC[C@@H]1C(=O)N1CCC[C@H]1C(=O)N[C@@H](C1CCCCC1)C(=O)N2) [Example 40]	10	25	33	8	3	> 44900	19	1	94
XCTKSDPPICY (HELM PEPTIDE1{[Nle].C.T.K.S.D.P.P.I.C.Y.[dP].P}$PEPTIDE1,PEPTIDE1,2:R3-10:R3|PEPTIDE1,PEPTIDE1,1:R1-13:R2$$$V2.0; SMILES CCCC[C@@H]1NC(=O)[C@@H]2CCCN2C(=O)[C@H]2CCCN2C(=O)[C@H](Cc2ccc(O)cc2)NC(=O)[C@@H]2CSSC[C@H](NC1=O)C(=O)N[C@@H]([C@@H](C)O)C(=O)N[C@@H](CCCCN)C(=O)N[C@@H](CO)C(=O)N[C@@H](CC(=O)O)C(=O)N1CCC[C@H]1C(=O)N1CCC[C@H]1C(=O)N[C@@H]([C@@H](C)CC)C(=O)N2) [Example 44]	14	31	50	3	9	> 10000	24	9	100
FCTKSDPPICS (HELM PEPTIDE1{F.C.T.K.S.D.P.P.I.C.S.[dP].P}$PEPTIDE1,PEPTIDE1,2:R3-10:R3|PEPTIDE1,PEPTIDE1,1:R1-13:R2$$$V2.0; SMILES CC[C@H](C)[C@@H]1NC(=O)[C@@H]2CCCN2C(=O)[C@@H]2CCCN2C(=O)[C@H](CC(=O)O)NC(=O)[C@H](CO)NC(=O)[C@H](CCCCN)NC(=O)[C@H]([C@@H](C)O)NC(=O)[C@@H]2CSSC[C@H](NC1=O)C(=O)N[C@@H](CO)C(=O)N1CCC[C@@H]1C(=O)N1CCC[C@H]1C(=O)N[C@@H](Cc1ccccc1)C(=O)N2) [Example 4]	5.4	91	0	0	2.4	> 100000	1.8	0	96
FCTKSDPPICY (HELM PEPTIDE1{F.C.T.K.S.D.P.P.I.C.Y.[dP].P}$PEPTIDE1,PEPTIDE1,2:R3-10:R3|PEPTIDE1,PEPTIDE1,1:R1-13:R2$$$V2.0; SMILES CC[C@H](C)[C@@H]1NC(=O)[C@@H]2CCCN2C(=O)[C@@H]2CCCN2C(=O)[C@H](CC(=O)O)NC(=O)[C@H](CO)NC(=O)[C@H](CCCCN)NC(=O)[C@H]([C@@H](C)O)NC(=O)[C@@H]2CSSC[C@H](NC1=O)C(=O)N[C@@H](Cc1ccc(O)cc1)C(=O)N1CCC[C@@H]1C(=O)N1CCC[C@H]1C(=O)N[C@@H](Cc1ccccc1)C(=O)N2) [Example 5]	5.7	56	74	0	0.2	> 100000	3	0.5	92

Now from value to binder:

% inhibition at 100 µM [1] [%]	IC50 [2] [nmol]	% inhibition at 100 µM [3] [%]	% inhibition at 100 µM (Chymase, from human skin) [%]	% inhibition at 100 µM [4] [%]	IC50 [5] [nmol]	% inhibition at 100 µM [6] [%]	% inhibition at 100 µM [7] [%]	% inhibition at 100 µM [8] [%]	Binder
5.8	87.5	44.1	10.2	12.2	> 100000	0	6.9	95	FCTKSDPPICS (HELM PEPTIDE1{F.C.T.K.S.D.P.P.I.C.S.[dD].P}$PEPTIDE1,PEPTIDE1,2:R3-10:R3|PEPTIDE1,PEPTIDE1,1:R1-13:R2$$$V2.0; SMILES CC[C@H](C)[C@@H]1NC(=O)[C@@H]2CCCN2C(=O)[C@@H]2CCCN2C(=O)[C@H](CC(=O)O)NC(=O)[C@H](CO)NC(=O)[C@H](CCCCN)NC(=O)[C@H]([C@@H](C)O)NC(=O)[C@@H]2CSSC[C@H](NC1=O)C(=O)N[C@@H](CO)C(=O)N[C@H](CC(=O)O)C(=O)N1CCC[C@H]1C(=O)N[C@@H](Cc1ccccc1)C(=O)N2) [Example 46]
6.3	64	0	8.2	9.3	> 10000	1	0	87	FCTKSDPPICS (HELM PEPTIDE1{F.C.T.K.S.D.P.P.I.C.S.[dP].D}$PEPTIDE1,PEPTIDE1,2:R3-10:R3|PEPTIDE1,PEPTIDE1,1:R1-13:R2$$$V2.0; SMILES CC[C@H](C)[C@@H]1NC(=O)[C@@H]2CCCN2C(=O)[C@@H]2CCCN2C(=O)[C@H](CC(=O)O)NC(=O)[C@H](CO)NC(=O)[C@H](CCCCN)NC(=O)[C@H]([C@@H](C)O)NC(=O)[C@@H]2CSSC[C@H](NC1=O)C(=O)N[C@@H](CO)C(=O)N1CCC[C@@H]1C(=O)N[C@@H](CC(=O)O)C(=O)N[C@@H](Cc1ccccc1)C(=O)N2) [Example 47]
0	41	50	7	0	> 100000	11	1	96	XCTKSDPPXCY (HELM PEPTIDE1{[O=C([C@@H](N[*:1])C1CCCCC1)[*:2]].C.T.K.S.D.P.P.[Nle].C.Y.[dP].P}$PEPTIDE1,PEPTIDE1,2:R3-10:R3|PEPTIDE1,PEPTIDE1,1:R1-13:R2$$$V2.0; SMILES CCCC[C@@H]1NC(=O)[C@@H]2CCCN2C(=O)[C@@H]2CCCN2C(=O)[C@H](CC(=O)O)NC(=O)[C@H](CO)NC(=O)[C@H](CCCCN)NC(=O)[C@H]([C@@H](C)O)NC(=O)[C@@H]2CSSC[C@H](NC1=O)C(=O)N[C@@H](Cc1ccc(O)cc1)C(=O)N1CCC[C@@H]1C(=O)N1CCC[C@H]1C(=O)N[C@@H](C1CCCCC1)C(=O)N2) [Example 63]
3	45	0	0	0	> 100000	0	2.3	87	FCTKSDPPICS (HELM PEPTIDE1{F.C.T.K.S.D.P.P.I.C.S.[dP].E}$PEPTIDE1,PEPTIDE1,2:R3-10:R3|PEPTIDE1,PEPTIDE1,1:R1-13:R2$$$V2.0; SMILES CC[C@H](C)[C@@H]1NC(=O)[C@@H]2CCCN2C(=O)[C@@H]2CCCN2C(=O)[C@H](CC(=O)O)NC(=O)[C@H](CO)NC(=O)[C@H](CCCCN)NC(=O)[C@H]([C@@H](C)O)NC(=O)[C@@H]2CSSC[C@H](NC1=O)C(=O)N[C@@H](CO)C(=O)N1CCC[C@@H]1C(=O)N[C@@H](CCC(=O)O)C(=O)N[C@@H](Cc1ccccc1)C(=O)N2) [Example 64]
4.6	59	21.3	0	8.6	> 100000	4.3	5.4	84.2	FCTKSDPPICS (HELM PEPTIDE1{F.C.T.K.S.D.P.P.I.C.S.[dA].D}$PEPTIDE1,PEPTIDE1,2:R3-10:R3|PEPTIDE1,PEPTIDE1,1:R1-13:R2$$$V2.0; SMILES CC[C@H](C)[C@@H]1NC(=O)[C@@H]2CCCN2C(=O)[C@@H]2CCCN2C(=O)[C@H](CC(=O)O)NC(=O)[C@H](CO)NC(=O)[C@H](CCCCN)NC(=O)[C@H]([C@@H](C)O)NC(=O)[C@@H]2CSSC[C@H](NC1=O)C(=O)N[C@@H](CO)C(=O)N[C@H](C)C(=O)N[C@@H](CC(=O)O)C(=O)N[C@@H](Cc1ccccc1)C(=O)N2) [Example 68]
